Laboratory results from PMC2614558.

Columns and labels:
[1] = target: cytoplasmic (C-terminal, soluble) domain of the putative zinc transporter CzrB from Thermus thermophilus, His-tag-free (Thermus thermophilus); assay: small-angle X-ray scattering
[2] = target: cytoplasmic (C-terminal, soluble) domain of the putative zinc transporter CzrB from Thermus thermophilus, His-tag-free (Thermus thermophilus); assay: SEC
[3] = target: cytoplasmic (C-terminal, soluble) domain of the putative zinc transporter CzrB from Thermus thermophilus, His-tag-free (Thermus thermophilus); assay: small-angle X-ray scattering; remark: listed apart in the source

stoichiometry N [1]: 2
stoichiometry N [2]: 2
stoichiometry N [3]: 2
Substance: cytoplasmic (C-terminal, soluble) domain of the putative zinc transporter CzrB from Thermus thermophilus, His-tag-free (domain or fragment)
